Reference: patent publication US6037145

Molecular target: Z-Phe-Leu-Glu-4-nitranilide

## recombinant V8 protease (V8D) (enzyme)
  enzyme activity after refolding: 30 µg/mL
